Laboratory results from patent US9724426B2, “Agents, uses and methods” (AFFINICON APS, priority 2009, dated 2017).
“And” between values parts separate entries of the source, which are not always exact repeats. Identical values can stand only once.

Tests used:
[1] = system: LPS induction of TNF production in human in vitro matured macrophages; test: Dexamethasone treatment of cultivated pro-inflammatory macrophages, soluble TNF by cytometry bead array; format: cell-based; settings: without dexamethasone; results not shown
Protocol: Monocytes were resuspended in RMPI 1640 medium (Sigma-Aldrich, Brondby, Denmark) containing 20% fetal calf serum (FCS) supplemented with 100 ng/ml M-CSF (GenScript Corporation, New Jersey, USA) and pencillin/streptomycin (pen/strep) for 7 days. The first 3 days in Tissue Culture Flasks at 37° C. and 5% CO2. The monocytes were then detached from the flask by flushing and scraping. The monocytes were divided into smaller portions and further grown for four days. […] cells per well were grown in 96 well tissue culture plates for TNF CBA use.
Subsequently, the macrophages were activated in RMPI 1640 containing 5% FCS, 1 ug/ml lipopolysaccaride (LPS) (Sigma-Aldrich, Brøondby, Denmark) and 20 ng/ml INF-gamma (Genscript Corporation, New Jersey, USA) for 18 hours making them pro-inflammatory.
The pro-inflammatory macrophages were stimulated with RMPI160, 5% FCS, 1 ug/ml LPS and 20 ng/ml INF-gamma containing either dexamethasone, Ab-dexamethasone or no drug.
To detect the change in soluble TNF-alpha concentration we used the Cytometry Bead Array Kit (BD Biosciences, New Jersey, USA). The media from the in vitro stimulated macrophages (described earlier) grown in 96 well tissue culture plates were analyzed according to the manufacturer's protocol.

[2] = target: T1, CD163 on CD14+ peripheral blood monocytes (Homo sapiens, UniProt Q86VB7); test: Quantitative flow cytometry of monocyte surface CD163 expression with different anti-CD163 clones; format: cell-based
T1 construct: endogenous in cells; host or cells: human peripheral blood monocytes, monocyte-derived macrophages, blood dendritic cells
Protocol: Freshly drawn peripheral whole blood samples or PBMC (approx. 3×10^6 cells) were stained with isotype-matched control antibody or a relevant antibody for one hour at 4° C. in the dark. When staining whole blood, erythrocytes were lysed for 15 min with 4° C. cold solution of ammonium chloride. When indirect immunofluoresence staining was required, cells were initially incubated with unconjugated primary CD163 antibody for one hour at 4° C., washed three times with D-PBS, pH 7.4, followed by incubation with goat anti-mouse-conjugated Alexa-Fluor® 488 (1:200 dilution; Molecular Probes, Invitrogen, Carlsbad, Calif., USA) for one hour at 4° C. in the dark. The stained cells were washed twice three D-PBS, pH 7.4, re-suspended in 400 μl FACSflow (Becton Dickinson, San Jose, Calif., USA), and kept on ice until analysis. All samples were analyzed using a FACSCalibur flow cytometer and compensated for spectral overlap using FlowJo for Macintosh software version 8.3 (TreeStar, San Carlos, Calif.). For CD163 density quantitation, flow cytometric estimation of antibodies bound/cell (ABCs) was performed using Quantibrite PE beads (Becton Dickinson, San Jose, Calif., USA) as recommended by the manufacturer. After the cells were stained, as detailed, a set of 4 pre-calibrated fluorescently labeled beads was used for standardization before the samples were acquired. The Quantibrite PE beads were run at the same instrument settings as the assay, and the linear regression obtained using the Quantibrite PE beads was used to convert the FL2 linear fluorescence staining of cell population into the number of (CD163) PE molecules bound per cell (ABC).

[3] = target: recombinant CD163 immobilized on a Biacore chip (Homo sapiens, UniProt Q86VB7); test: Surface plasmon resonance (Biacore) analysis of mAb binding to immobilized CD163; settings: 5 μg/ml
Protocol: SPR analysis of the binding of mAbs to CD163 was carried out on a Biacore 2000 instrument (Biacore, Uppsala, Sweden). The Biacore sensor chips (type CM5) were activated with a 1:1 mixture of 0.2 M N-ethyl-N′-(3-dimethylaminopropyl) carbodiimide and 0.05 M N-hydroxysuccimide in water. Purified recombinant CD163 were immobilized in 10 mM sodium acetate, pH 4.0, and the remaining binding sites were blocked with 1 M ethanolamine, pH 8.5. The SPR signal generated from immobilized recombinant CD163 proteins corresponded to 40-70 fmol of protein/mm^2. Sensorgrams were generated using mAb concentrations ranging from 5-100 nM. The flow cells were regenerated with 1.6 M glycine-HCl, pH 3. The running buffer used for the experiment was either CaHBS 10 mM Hepes, 150 mM NaCl, 3.0 mM CaCl2, 1.0 mM EGTA, and 0.005% Tween 20, pH 7.4. or 10 mM Hepes, 150 mM NaCl, 3.0 mM EDTA, and 0.005% Tween 20, pH 7.4, mAb samples were dissolved in the same buffer as the running buffer used. All binding data were analyzed using the Biamolecular Interaction Analysis evaluation program version 3.1.
SPR analysis of the binding of mAbs to CD163 was carried out on a Biacore 2000 instrument (Biacore, Uppsala, Sweden). […] All binding data were analyzed using the Biamolecular Interaction Analysis evaluation program version 3.1.

T1 sequence (Q86VB7 42-1156): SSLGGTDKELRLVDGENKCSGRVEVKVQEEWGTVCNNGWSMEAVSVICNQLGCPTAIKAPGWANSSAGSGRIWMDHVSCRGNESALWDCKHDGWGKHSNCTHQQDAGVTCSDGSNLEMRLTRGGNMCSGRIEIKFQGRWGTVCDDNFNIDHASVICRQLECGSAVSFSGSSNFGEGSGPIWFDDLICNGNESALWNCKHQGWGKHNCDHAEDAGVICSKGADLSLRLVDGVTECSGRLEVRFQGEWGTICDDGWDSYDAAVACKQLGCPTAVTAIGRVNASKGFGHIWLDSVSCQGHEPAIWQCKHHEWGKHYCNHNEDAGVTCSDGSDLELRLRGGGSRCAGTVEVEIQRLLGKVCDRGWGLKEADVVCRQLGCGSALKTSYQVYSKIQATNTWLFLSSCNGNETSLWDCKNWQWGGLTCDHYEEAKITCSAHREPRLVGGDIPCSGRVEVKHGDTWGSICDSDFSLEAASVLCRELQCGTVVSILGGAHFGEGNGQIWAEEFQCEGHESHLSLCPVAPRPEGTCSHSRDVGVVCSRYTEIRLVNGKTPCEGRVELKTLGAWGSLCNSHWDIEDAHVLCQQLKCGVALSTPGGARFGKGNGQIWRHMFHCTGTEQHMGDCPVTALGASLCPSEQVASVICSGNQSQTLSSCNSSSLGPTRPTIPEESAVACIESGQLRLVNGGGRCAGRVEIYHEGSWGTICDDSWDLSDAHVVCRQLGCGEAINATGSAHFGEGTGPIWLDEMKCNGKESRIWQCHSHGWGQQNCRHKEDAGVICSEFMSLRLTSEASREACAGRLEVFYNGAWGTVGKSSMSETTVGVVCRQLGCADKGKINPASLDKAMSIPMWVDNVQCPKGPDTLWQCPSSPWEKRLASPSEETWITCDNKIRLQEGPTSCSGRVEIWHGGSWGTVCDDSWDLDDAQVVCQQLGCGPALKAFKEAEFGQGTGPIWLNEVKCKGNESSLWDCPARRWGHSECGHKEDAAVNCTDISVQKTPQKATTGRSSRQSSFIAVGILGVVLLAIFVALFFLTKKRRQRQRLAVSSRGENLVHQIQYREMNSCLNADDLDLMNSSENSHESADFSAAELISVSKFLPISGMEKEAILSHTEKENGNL
Chain of recombinant CD163 immobilized on a Biacore chip (Q86VB7 42-1156): as above

B1: Mac2-158: murine anti-human CD163 mAb binding SRCR domain 1; VH SEQ ID NO:20, VL SEQ ID NO:21; IQ Products (antibody, V domains shown)
VH: DVQLQESGPGLVKPSQSLSLTCTVTGYSITSDYAWNWIRQFPGNKLEWMGYITYSGITNYNPSLKSQISITRDTSKNQFFLQLNSVTTEDTATYYCVSGTYYFDYWGQGTTLTVSS
VL: SVVMTQTPKSLLISIGDRVTITCKASQSVSSDVAWFQQKPGQSPKPLIYYASNRYTGVPDRFTGSGYGTDFTFTISSVQAEDLAVYFCGQDYTSPRTFGGGTKLEIKRA
modifications: Mac2-158 VH sequence; Mac2-158 VL sequence
notes: IQ Products
effect on macrophages [1]: no effect different from buffer
density of CD163 receptors per monocyte ([2]; citrate stabilized whole blood): 17,726
fraction of CD14+ monocytes stained positive for CD163 ([2]; citrate stabilized whole blood): 83.97%
fraction of CD14+ monocytes stained positive for CD163 ([2]; freshly drawn EDTA stabilized whole blood): 84.06% and 87.23%
density of CD163 receptors per monocyte ([2]; heparin stabilized whole blood): 18,929
fraction of CD14+ monocytes stained positive for CD163 ([2]; heparin stabilized whole blood): 84.43%
affinity for human CD163, KN2/NRY compared with Mac2-158 [3]: Virtually similar affinities
